Data as given in article PMC5467530.

Substrate: O=c1[nH]cnc2c([C@@H]3O[C@H](COP(=O)(O)O)[C@@H](O)[C@H]3O)n[nH]c12
Experiment: pyruvate kinase / lactate dehydrogenase coupled assay, NADH oxidation by UV
Format: biochemical, Streptomyces kaniharaensis
Conditions: 2.5 mM L-aspartate, 0.125 mM GTP

B1: ForA (Streptomyces kaniharaensis) (protein)
chain: MLKAIVGLNWGDEGKGRMVDNLSAEADYTVRYHGGSNAGHTIHTDQGKFKLHSLPSSVLHPTVTGVLGPGMTVDVEGFLAEFEALREHGVTADRLLVADAASVCFPFHRDLDGAEEERLSDGRYGSTRRGISPAYGDRVMKKTLLVRELFDRENLPARLAAVLDWANERIVRIYGGAPLSLDEVTRWAADVAARLEPHVVDATALLGKALDDGATVIAEGQLGALKDLYYGIYPFTTSSTCLAGHAPVGIGVPWARVDRTIGVTKAFSSCVGAGPFVTEFDEERADRLRRQWGEYGSTTNRPRRLGAFDAVATRYGVRVQGADEVAITNLDQLSGTGELDLCVAYERAGRTVREFSPRPAELAASTPVHETLSGWDEDISGVRTYEQLPAGAREYVEAIQELLGVPVRHVSVGSHRDALIEIK
Km: 74 ± 25 µM | kcat: 0.3 ± 0.033 s⁻¹
